Data from patent US20100081624.

What was measured:
[1] = tested on: mutLxVPc1 peptide (LxVP motif from NFATc1 with the Leucine, Valine and Proline residues replaced by Alanine)
[2] = tested on: T1, LxVPc1 peptide (synthetic peptide with the LxVP sequence of NFATc1)
T1 sequence: DQYLAVPQHPYQWAK

## Calcineurin of the Biomol Green Calcineurin assay kit
[1]
  phosphatase activity of CN on the RII phosphopeptide substrate: (but not its mutant version)
[2]
  phosphatase activity of CN on the RII phosphopeptide substrate: severely blocked in vitro the phosphatase activity of CN on its physiological substrate
